Laboratory results as given in patent US7091002B2, “Carboxypeptidases and nucleic acids encoding same” (Novozymes, Inc., priority 1996, dated 2006).
Values joined by “and” are separate entries in the source; they are usually repeats but may differ in a detail not shown here. Equal values may be shown once. Residues, ends and D or L forms follow the SMILES beside them. *: point of attachment. Cbz = O=C(OCc1ccccc1)*

What was measured:
Assay type in all cases: biochemical
[1] = target: T1, Aspergillus oryzae ATCC 20386 carboxypeptidase I (Aspergillus oryzae, UniProt Q2TZ11); assay: Substrate specificity of the carboxypeptidase (hydrolysis of N-CBZ-Ala-X / N-CBZ-Glu-X); settings: 2 mM substrate, 2 hour incubation, 4.9×10^−7 M carboxypeptidase
T1 sequence (Q2TZ11 19-555): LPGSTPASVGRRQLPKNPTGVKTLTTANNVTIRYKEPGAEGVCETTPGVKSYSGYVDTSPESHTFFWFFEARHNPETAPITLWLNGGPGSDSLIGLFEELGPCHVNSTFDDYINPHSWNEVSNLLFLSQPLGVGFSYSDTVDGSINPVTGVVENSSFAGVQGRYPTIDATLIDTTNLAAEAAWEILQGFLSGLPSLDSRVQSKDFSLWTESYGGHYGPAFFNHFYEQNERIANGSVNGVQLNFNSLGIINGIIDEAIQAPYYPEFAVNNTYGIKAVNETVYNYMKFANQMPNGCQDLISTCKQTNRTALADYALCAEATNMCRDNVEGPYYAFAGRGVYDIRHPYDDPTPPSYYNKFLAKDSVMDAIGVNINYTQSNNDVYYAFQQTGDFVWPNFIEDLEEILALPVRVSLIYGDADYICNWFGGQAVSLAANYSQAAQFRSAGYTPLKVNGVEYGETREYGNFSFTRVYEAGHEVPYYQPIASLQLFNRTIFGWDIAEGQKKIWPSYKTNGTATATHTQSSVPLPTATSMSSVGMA
Experimental: (§1) The substrate specificity of the carboxypeptidase was determined by measuring the hydrolysis of a substrate listed in Table 1 at pH 4.0 in 50 mM acetate buffer. o-Phthaldialdehyde together with dithiothreitol were used to monitor the liberation of free IIe, Glu, Lys, Arg, Asp, Asn, Gly, Phe, amd Tyr under enzymatic hydrolysis according to the procedure of Roth, M., 1971, Analytical Chemistry 43: 880. The kcat value for the hydrolysis of N-CBZ-Ala-X or N-CBZ-Glu-X was determined based on the assumption that molecular weight of the carboxypeptidase was 68 kD and that the enzyme preparation was homogeneous.

[2] = target: T1, Aspergillus oryzae ATCC 20386 carboxypeptidase I; assay: Inhibition of the carboxypeptidase with 1,10-phenanthroline and phenylmethylsulfonyl fluoride; settings: furylacryloyl-Ala-Lys as substrate, pH 7.0, 20 mM phosphate buffer, hydrolysis monitored at 340 nm
Experimental: Inhibition of the carboxypeptidase with 1,10-phenanthroline and phenylmethylsulfonyl fluoride was evaluated using furylacryloyl-Ala-Lys as substrate at pH 7.0 in 20 mM phosphate buffer where hydrolysis was monitored at 340 nm.

[3] = test system: Aspergillus oryzae ATCC 20386 carboxypeptidase I; assay: Substrate specificity of the carboxypeptidase (hydrolysis of N-CBZ-Ala-X / N-CBZ-Glu-X); settings: compared with literature values
Experimental: as §1

[4] = test system: soy meal, wheat gluten, casein and gelatin; assay: Protein hydrolysis, DH, summary for all substrates
Experimental: (§2) Commercial grade soy meal, wheat gluten, casein and gelatin were used as protein substrates. The soy meal was prepared from defatted toasted soy grits 20/80/20 (Cargill BV, NL); vital wheat gluten was obtained from Crespel and Dieters, Denmark; casein was obtained as Na-Caseinate Miprodan (MD Foods, Denmark); and gelatin was obtained as Bonegelatin (DGF Stores, Denmark).
(§3) The substrates were prepared as a 2% (w/v) aqueous solution, in which the protein concentration was determined by the method of Kjeldahl. Two hundred mg of each substrate, obtained in the form of a dry composition, was dissolved in 9 ml of tap water and the pH was adjusted to 7.0. […]
(§4) The hydrolysates were cooled and the degree of hydrolysis (DH) was assayed in microtiter plates using OPA (ortho-phtaldialdehyde, Sigma Chemical Co., St. Louis, Mo.) as the detecting reagent. The DH, defined as described in by Adler-Nissen (1986, Enzymic Hydrolysis of Food Proteins, Elsevier Applied Science Publishers), was determined by reaction of the supernatant with OPA (ortho-phtaldialdehyde, Sigma Chemical Co., St. Louis, Mo.). […]
(§5) A volume of 25 μl of suitably diluted supernatant was mixed with 200 μl of OPA reagent in a microtiter plate well and allowed to react for exactly 2 minutes at 25° C. […] The degree of hydrolysis was calculated on basis of the total amount of protein in the hydrolysis mixture (not on basis of soluble protein).

[5] = test system: Wheat Gluten; assay: Protein hydrolysis, degree of hydrolysis (DH), wheat gluten; settings: Wheat Gluten 2% (w/v), pH 7.0, 18 hours at 50° C.; FLAVOURZYME 3 LAPU, carboxypeptidase 11.5 CPDU
Experimental: as §2, §3, §4, §5

[6] = Specific activity of the carboxypeptidase (CPDU assay); settings: 0.5 mM N-CBZ-Ala-Glu, pH 4.5, 25° C.
Experimental: The activity of the carboxypeptidase was determined by measuring the rate of specific hydrolysis of N-CBZ-Ala-Glu. One carboxypeptidase unit (CPDU) is the amount of carboxypeptidase which liberates 1 micromole of glutamate per minute from a 0.5 mM N-CBZ-Ala-Glu solution at pH 4.5 and 25° C. A reagent containing o-phthaldialdehyde in combination with dithiothreitol was used to monitor the liberation of free glutamate under enzymatic hydrolysis according to the procedure of Roth, 1971, supra. The o-phthaldialdehyde reagent was a solution of o-phthaldialdehyde (6 mM) and dithiothreitol (6.5 mM) in 0.1 M sodium tetraborate. Briefly, 0.05 ml of the enzyme solution in 20 mM acetate buffer, pH 4.5 was incubated with 1 ml of substrate. At regular time intervals, a 0.3 ml aliquot was withdrawn, mixed with 0.9 ml of the o-phthaldialdehyde reagent, and the absorption at A340, using a path length of 1 cm, of the resultant product was measured. Where the dependence of A340 on the incubation time was linear, the specific activity of the enzyme was calculated using the equation: specific activity=slope (optical density per min)×11.35. By this procedure, the specific activity of the purified carboxypeptidase was determined to be 11 CPDU per mg protein which is equivalent to 11 micromoles glutamate per minute per mg protein.

[7] = test system: Soy Meal; assay: Protein hydrolysis, degree of hydrolysis (DH), soy meal; settings: Soy Meal 2% (w/v), pH 7.0, 18 hours at 50° C.; FLAVOURZYME 3 LAPU, carboxypeptidase 11.5 CPDU
Experimental: as §2, §3, §4, §5

[8] = test system: Casein; assay: Protein hydrolysis, degree of hydrolysis (DH), casein; settings: Casein 2% (w/v), pH 7.0, 18 hours at 50° C.; FLAVOURZYME 3 LAPU, carboxypeptidase 11.5 CPDU
Experimental: as §2, §3, §4, §5

[9] = test system: Gelatin; assay: Protein hydrolysis, degree of hydrolysis (DH), gelatin; settings: Gelatin 2% (w/v), pH 7.0, 18 hours at 50° C.; FLAVOURZYME 3 LAPU, carboxypeptidase 11.5 CPDU
Experimental: as §2, §3, §4, §5

[10] = Thermostability of the carboxypeptidase (residual activity); settings: 10 minute incubation, 50 mM acetate buffer
[11] = substrate: C[C@H](NC(=O)/C=C/c1ccco1)C(=O)N[C@@H](CCCCN)C(=O)O; assay: Km of the carboxypeptidase toward furylacryloyl-Ala-Lys; settings: other: pH 4.0, 25° C.

In the case of `C[C@H](NC(=O)OCc1ccccc1)C(=O)N1CCC[C@H]1C(=O)O` [N-CBZ-Ala-Pro] (Cbz-Ala-Pro-OH), the “fraction of substrate solution hydrolyzed” value [1] is reported as 16%.

With `O=S(=O)(F)Cc1ccccc1` [phenylmethylsulfonyl fluoride] the “Inhibition of carboxypeptidase activity” value [2] was “inhibits carboxypeptidase activity completely”.

For `C[C@H](NC(=O)OCc1ccccc1)C(=O)N[C@@H](Cc1ccccc1)C(=O)O` [N-CBZ-Ala-Phe], the “kcat relative to acid carboxypeptidases O-1 and O-2 from Aspergillus oryzae” value [3] was “at least 8.5 fold”.

In the case of `c1cnc2c(c1)ccc1cccnc12` [1,10-phenanthroline], the “Inhibition of carboxypeptidase activity” value [2] is reported as “does not inhibit”.

B1: carboxypeptidase: carboxypeptidase purified from FLAVOURZYME broth, approximately 68 kDa serine carboxypeptidase, amino acid sequence SEQ ID NO: 2 (protein, listed as Aspergillus oryzae)
chain: MRGYEFLSVLPLVAASWALPGSTPASVGRRQLPKNPTGVKTLTTANNVTIRYKEPGAEGVCETTPGVKSYSGYVDTSPESHTFFWFFEARHNPETAPITLWLNGGPGSDSLIGLFEELGPCHVNSTFDDYINPHSWNEVSNLLFLSQPLGVGFSYSDTVDGSINPVTGVVENSSFAGVQGRYPTIDATLIDTTNLAAEAAWEILQGFLSGLPSLDSRVQSKDFSLWTESYGGHYGPAFFNHFYEQNERIANGSVNGVQLNFNSLGIINGIIDEAIQAPYYPEFAVNNTYGIKAVNETVYNYMKFANQMPNGCQDLISTCKQTNRTALADYALCAEATNMCRDNVEGPYYAFAGRGVYDIRHPYDDPTPPSYYNKFLAKDSVMDAIGVNINYTQSNNDVYYAFQQTGDFVWPNFIEDLEEILALPVRVSLIYGDADYICNWFGGQAVSLAANYSQAAQFRSAGYTPLKVNGVEYGETREYGNFSFTRVYEAGHEVPYYQPIASLQLFNRTIFGWDIAEGQKKIWPSYKTNGTATATHTQSSVPLPTATSMSSVGMA
With B1 the “effect on DH, enzyme alone” value [4] was “no effect”, the “effect on the DH obtained by FLAVOURZYME when added with FLAVOURZYME” value [4] was “enhanced” and the DH [5] was 0. For the same molecule, the specific activity [6] was 11 CPDU per mg protein and 11 micromoles glutamate per minute per mg protein, the DH [7] was 0 and the DH [8] was 0. It also gave a DH [9] of 0, a residual activity ([10]; pH 4.0, 55° C.) of 74% and a residual activity ([10]; pH 4.0, 60° C.) of 65%.

B2: Aspergillus oryzae ATCC 20386 carboxypeptidase I (Aspergillus oryzae RIB40) (protein)
chain: T1 sequence (Q2TZ11 19-555)
B2 showed a Km [11] of 400 µM.
